Measurements as given in patent publication US20110294740A1 (RESEARCH FOUNDATION FOR THE STATE UNIVERSITY OF NEW YORK, published 2011).

B1: myelin basic protein (purified MBP) (other, human, UniProt P02686-5 2-171, looked up)
chain: ASQKRPSQRHGSKYLATASTMDHARHGFLPRHRDTGILDSIGRFFGGDRGAPKRGSGKDSHHPARTAHYGSLPQKSHGRTQDENPVVHFFKNIVTPRTPPPSQGKGRGLSLSRFSWGAEGQRPGFGYGGRASDYKSAHKGFKGVDAQGTLSKIFKLGGRDSRSGSPMARR
notes: also called intact MBP

Key:
[1] = target: B1; assay: dot blot: peptide immobilised on nitrocellulose, incubated with MBP, detected with mAb 384
Experimental: Dot Blot Analysis. […] Insulin (Sigma) was resuspended to 2 mg/ml in water at pH 2.0 and diluted to 2 μg/ml in Tris-buffered saline. 1 μg of each was immobilized onto Hybond ECL nitrocellulose membranes using a Bio-Dot microfiltration apparatus (Bio-Rad) according to the manufacturer's instructions. Each membrane was removed from the apparatus following immobilization and blocked overnight in 5% BSA and PBS at 4° C. […] The membrane was washed 3×10 min with 5% BSA, PBS, and 0.05% Tween 20 and incubated with mAb 384 (1:2000 dilution) for 1 h at room temperature. The membrane was next washed […] with PBS and 0.05% Tween 20 and incubated with horseradish peroxidase-conjugated sheep antimouse IgG (1:2000 dilution) for 1 h at room temperature. Detection and quantitation were performed as described above.

wild-type Aβ42 peptide = target: T1, wild-type Aβ42 peptide (UniProt P05067 672-713); assay: SPR, Aβ peptide immobilised, MBP as analyte
T1 construct: domain: Aβ42; Free in co-immunoprecipitation; also called Aβ42WT
T1 sequence (P05067 672-713 limits assumed): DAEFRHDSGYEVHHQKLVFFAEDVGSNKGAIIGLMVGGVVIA

Binder	binding result [1]	Kd (wild-type Aβ42 peptide) [nM]
RGRKQCKTHPHFVIPYRCLV [APP 100-119]	no binding (tested: 1 g/ml MBP (as printed in paragraph 99))	–
PEERHLSKMQQNGYENPTYK (also called AβPP-(744-763)) [APP 744-763]	no binding (tested: 1 g/ml MBP (as printed in paragraph 99))	–
B1	–	43
